From patent publication US20220259593A1, “CONTROL OF MAMMALIAN GENE DOSAGE USING CRISPR” (The Regents of the University of California, priority 2019, published 2022) come the findings set out here.

The subject of this data set is K562 CRISPRi cells. Description: Constant region variant library pooled growth screen, K562. In kind it is cell-based, human. The settings on record: sgRNA constant region variants. An excerpt:
We calculated relative activities for each targeting sequence:constant region pair by normalizing its phenotype to that of the targeting sequence paired with the unmodified constant region, identifying 409 constant region variants that on average conferred intermediate activity (0.1-0.9, FIG. 5B). Ten variants selected for individual evaluation also mediated intermediate levels of mRNA knockdown (FIG. 6B). Mapping the activities of constant region variants with single base substitutions onto the structure recapitulated known relationships between constant region structure and function (FIG. 5C).
The sequences in the library of modified constant regions were derived from the sgRNA (F+E) optimized sequence (23) modified to include a BlpI site (15). Each modified constant region was paired with 36 sgRNA targeting sequences (3 sgRNAs targeting each of 10 essential genes and six non-targeting negative control sgRNAs). The cloning strategy (described below) allowed the mutation of most positions in the sgRNA constant region. A variety of modifications were made, including substitutions of all single bases not in the BlpI restriction site (which is used for cloning), double substitutions including all substitutions at base-paired position pairs not before or in the BlpI site, and a variety of triple, quadruple, and sextuple substitutions, including base-pair-preserving substitutions at adjacent base-pairs.
The library was ordered and cloned in two parts. One part consisted of ˜100 modifications to the eight bases upstream of the BlpI restriction site. Constant region variants with mutations in this section were paired with each of the 36 targeting sequences, ordered as a pooled oligonucleotide library (Twist Biosciences), and cloned into pCRISPRia-v2 as described above. The second part consisted of ˜900 modifications to the 71 bases downstream of the BlpI restriction site. This part was cloned in two steps. First, all 36 targeting sequences were individually cloned into pCRISPRia-v2 as described above. The vectors were then pooled at an equimolar ratio and digested with BlpI (NEB) and XhoI (NEB). The modified constant region variants were ordered as a pooled oligonucleotide library (Twist Biosciences), PCR amplified with Phusion polymerase (NEB), digested with BlpI (NEB) and XhoI (NEB), and ligated into the digested vector pool, in a manner identical to previously published protocols and as described above, except for the different restriction enzymes.
Screens with the compact mismatched sgRNA library and the constant region library were conducted largely as described above, with smaller modifications during the screening procedure and an updated sequencing library preparation protocol. Briefly, the libraries were transduced in duplicate into K562 CRISPRi (both libraries) or HeLa CRISPRi cells (compact mismatched sgRNA library) as described above. K562 replicates were maintained separately in 0.15 to 0.3 L of RPMI-1640 in 0.3 L spinner flasks for the course of the screen. HeLa replicates were maintained in sets of ten 15-cm plates. Cells were selected with puromycin as described above (K562: 1 day of 0.75 μg/mL and 1 day of 0.85 μg/mL; HeLa: 2 days of 0.8 μg/mL and 1 day of 1 μg/mL). The remainder of the screen was carried out at >1000× library coverage (K562 compact mismatched sgRNA library: >2000×; HeLa compact mismatched sgRNA library: >1000×; K562 constant region library: >2000×). Multiple samples were harvested after 4 to 8 days of growth. For the drug screen, 10 μM lovastatin (ApexBio) or an equivalent volume of DMSO (vehicle) was added to flasks at t=0, and 3 days later cells were pelleted and re-suspended in fresh medium. Lovastatin (12 μM) or DMSO was again added after 5 and 9 days of growth, with media exchanges 3 days after drug supplementation. Multiple samples were harvested after 4 to 8 days for the K562 and HeLa growth screens. […]

[1] abbreviates: activity relative to the un-modified constant region cr995.
Setting [2] is: activity relative to the original, un-modified constant region cr995.

Substitutions are numbered along the chain they refer to.

B1: cr304 (nucleic acid)
guide: GTTTAAGAGCTAAGCTGGAAACAGCATAGCAAGTTTAAATAAGGCTAGTCCGTTATCAATTTGAGAAAATGGCACCGAGTCGGTGCT
modifications: listed as DNA, chemistry not fully specified
For the molecule B1, the Mean relative activity under setting [1] amounted to 0.9285.

B2: cr838 (nucleic acid)
guide: B1 guide with T46C, T60C, G65A, A69G
modifications: listed as DNA, chemistry not fully specified
With B2, under setting [1], the Mean relative activity was 0.9187.

B3: cr275 (nucleic acid)
guide: B1 guide with T60C, T61C, G65A, A68G, A69G, C73G, C76A, G82T, G85C
modifications: listed as DNA, chemistry not fully specified
Under setting [2], B3 gave a Mean relative activity of 1.06.

B4: cr702 (nucleic acid)
guide: B1 guide with T60C, G65A, A69G, G72C
modifications: listed as DNA, chemistry not fully specified
In the case of B4, the Mean relative activity under setting [2] was found to be 0.8977.

B5: cr387 (nucleic acid)
guide: B1 guide with A47C, T60C, G65A, A69G
modifications: listed as DNA, chemistry not fully specified
For B5, the Mean relative activity under setting [1] turned out to be 0.9094.

B6: cr367 (nucleic acid)
guide: B1 guide with G44A, C50T, T60C, T62C, G65A, A67G, A69G, C73T, G85A
modifications: listed as DNA, chemistry not fully specified
Molecule B6 returned a Mean relative activity under setting [1] of 0.8998.

B7: cr614 (nucleic acid)
guide: B1 guide with G18A, T60C, G65A, A69G
modifications: listed as DNA, chemistry not fully specified
As for B7, the Mean relative activity under setting [1] is on record as 0.927.

B8: cr402 (nucleic acid)
guide: B1 guide with A23T, T60C, G65A, A69G
modifications: listed as DNA, chemistry not fully specified
For the molecule B8, the Mean relative activity under setting [2] is listed as 0.8977.

B9: cr863 (nucleic acid)
guide: B1 guide with A23C, T60C, G65A, A69G
modifications: listed as DNA, chemistry not fully specified
B9 showed a Mean relative activity under setting [1] of 0.9031.

B10: cr364 (nucleic acid)
guide: B1 guide with T60C, T61A, G65A, A69G
modifications: listed as DNA, chemistry not fully specified
Molecule B10 gave a Mean relative activity under setting [1] of 0.9193.

B11: cr567 (nucleic acid)
guide: B1 guide with T60C, A64C, A69G
modifications: listed as DNA, chemistry not fully specified
Under setting [2], B11 returned a Mean relative activity of 1.06.

B12: cr769 (nucleic acid)
guide: B1 guide with A32G, T53G, T54A, T60C, G65A, A69G
modifications: listed as DNA, chemistry not fully specified
For B12, the Mean relative activity under setting [1] came to 0.9268.

B13: cr503 (nucleic acid)
guide: B1 guide with T60C, G65A, A69G, T84G
modifications: listed as DNA, chemistry not fully specified
The molecule B13 yielded a Mean relative activity under setting [1] of 0.9079.

B14: cr626 (nucleic acid)
guide: B1 guide with T60C, G65C, A69G, A78C
modifications: listed as DNA, chemistry not fully specified
The molecule B14 showed a Mean relative activity under setting [1] of 0.9006.

B15: cr136 (nucleic acid)
guide: B1 guide with C45T, G48A, T60C, G65A, A69G, A74G, C75A, G83T, T84C
modifications: listed as DNA, chemistry not fully specified
Molecule B15 registered a Mean relative activity under setting [1] of 0.9172.

B16: cr388 (nucleic acid)
guide: B1 guide with T60C, G65A, A69G, G72T, C73A, G85T, C86A
modifications: listed as DNA, chemistry not fully specified
For B16, under setting [1], the Mean relative activity was determined as 0.9188.

B17: cr256 (nucleic acid)
guide: B1 guide with G29A, T60C, G65A, A69G
modifications: listed as DNA, chemistry not fully specified
Regarding B17, under setting [1], the Mean relative activity is 0.9023.

B18: cr777 (nucleic acid)
guide: B1 guide with T53G, T60C, G65A, A69G
modifications: listed as DNA, chemistry not fully specified
B18 gave a Mean relative activity under setting [1] of 0.9022.

B19: cr974 (nucleic acid)
guide: B1 guide with T60C, A69G, A78T
modifications: listed as DNA, chemistry not fully specified
B19 showed a Mean relative activity under setting [1] of 0.9235.

B20: cr132 (nucleic acid)
guide: B1 guide with T60C, A69G, C76T, G82A
modifications: listed as DNA, chemistry not fully specified
Under setting [1], B20 had a Mean relative activity of 0.9196.

B21: cr525 (nucleic acid)
guide: B1 guide with A59C, T60C, G65A, A69G, T70G, C76G, G82C
modifications: listed as DNA, chemistry not fully specified
B21 registered a Mean relative activity under setting [1] of 0.9205.

B22: cr597 (nucleic acid)
guide: B1 guide with A59C, T60C, G65A, A69G, T70G, C73G, G77T, C81A, G85C
modifications: listed as DNA, chemistry not fully specified
For the molecule B22, under setting [1], the Mean relative activity was determined as 0.9187.

B23: cr409 (nucleic acid)
guide: B1 guide with C22G, T60C, G65A, A69G
modifications: listed as DNA, chemistry not fully specified
Turning to B23, under setting [1], the Mean relative activity is given as 0.9158.

B24: cr752 (nucleic acid)
guide: B1 guide with T60C, G65T, A69G, T87G
modifications: listed as DNA, chemistry not fully specified
As to B24, the Mean relative activity under setting [1] stood at 0.9196.

B25: cr977 (nucleic acid)
guide: B1 guide with A59T, T60C, G65A, A69G, T70A, G77A, C81T
modifications: listed as DNA, chemistry not fully specified
B25 returned a Mean relative activity under setting [1] of 0.9127.

B26: cr910 (nucleic acid)
guide: B1 guide with T60C, G65A, A69G, C73A, C76G, G82C, G85T
modifications: listed as DNA, chemistry not fully specified
For the molecule B26, the Mean relative activity under setting [1] is reported as 0.9171.

B27: cr141 (nucleic acid)
guide: B1 guide with T46C, T60C, A69G
modifications: listed as DNA, chemistry not fully specified
On to B27, for which, under setting [1], the Mean relative activity was found to be 0.9018.

B28: cr640 (nucleic acid)
guide: B1 guide with T60C, G65A, A69G, A74C, C76A, G82T, T84G
modifications: listed as DNA, chemistry not fully specified
B28 had a Mean relative activity under setting [1] of 0.9186.
